Experimental data reported in patent US20220010021A1 (Sanofi, published 2022).

T1: human beta-Klotho (KLB) (human, UniProt Q86Z14 53-997)
T1 construct: also called human KLB
T1 sequence (looked up): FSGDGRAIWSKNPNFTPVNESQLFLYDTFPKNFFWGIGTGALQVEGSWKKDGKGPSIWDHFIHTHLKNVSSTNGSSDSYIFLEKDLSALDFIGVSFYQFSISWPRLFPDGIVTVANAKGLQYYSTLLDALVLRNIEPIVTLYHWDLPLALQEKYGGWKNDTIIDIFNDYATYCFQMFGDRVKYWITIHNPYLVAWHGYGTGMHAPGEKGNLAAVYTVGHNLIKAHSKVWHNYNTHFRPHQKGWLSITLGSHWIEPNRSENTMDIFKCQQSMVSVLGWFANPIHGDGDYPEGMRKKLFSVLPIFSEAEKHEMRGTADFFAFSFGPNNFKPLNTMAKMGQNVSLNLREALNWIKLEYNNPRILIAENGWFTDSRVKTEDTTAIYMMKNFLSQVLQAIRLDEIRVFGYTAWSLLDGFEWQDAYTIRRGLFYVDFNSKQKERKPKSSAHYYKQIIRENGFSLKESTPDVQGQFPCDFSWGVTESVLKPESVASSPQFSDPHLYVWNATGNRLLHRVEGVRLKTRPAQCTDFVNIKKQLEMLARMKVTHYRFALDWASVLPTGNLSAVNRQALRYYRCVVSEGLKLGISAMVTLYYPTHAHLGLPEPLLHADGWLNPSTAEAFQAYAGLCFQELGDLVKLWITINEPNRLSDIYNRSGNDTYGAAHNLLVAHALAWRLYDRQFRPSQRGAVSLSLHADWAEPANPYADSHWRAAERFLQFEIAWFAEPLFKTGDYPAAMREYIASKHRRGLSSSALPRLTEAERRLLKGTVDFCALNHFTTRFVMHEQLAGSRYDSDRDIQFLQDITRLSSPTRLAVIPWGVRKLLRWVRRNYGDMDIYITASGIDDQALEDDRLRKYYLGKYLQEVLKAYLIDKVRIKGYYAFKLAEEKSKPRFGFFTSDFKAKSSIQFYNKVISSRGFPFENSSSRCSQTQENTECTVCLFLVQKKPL

T2: human beta-Klotho (KLB) (human, UniProt Q86Z14 53-997)
T2 construct: Bought protein; also called human KLB; β-Klotho
T2 sequence (looked up): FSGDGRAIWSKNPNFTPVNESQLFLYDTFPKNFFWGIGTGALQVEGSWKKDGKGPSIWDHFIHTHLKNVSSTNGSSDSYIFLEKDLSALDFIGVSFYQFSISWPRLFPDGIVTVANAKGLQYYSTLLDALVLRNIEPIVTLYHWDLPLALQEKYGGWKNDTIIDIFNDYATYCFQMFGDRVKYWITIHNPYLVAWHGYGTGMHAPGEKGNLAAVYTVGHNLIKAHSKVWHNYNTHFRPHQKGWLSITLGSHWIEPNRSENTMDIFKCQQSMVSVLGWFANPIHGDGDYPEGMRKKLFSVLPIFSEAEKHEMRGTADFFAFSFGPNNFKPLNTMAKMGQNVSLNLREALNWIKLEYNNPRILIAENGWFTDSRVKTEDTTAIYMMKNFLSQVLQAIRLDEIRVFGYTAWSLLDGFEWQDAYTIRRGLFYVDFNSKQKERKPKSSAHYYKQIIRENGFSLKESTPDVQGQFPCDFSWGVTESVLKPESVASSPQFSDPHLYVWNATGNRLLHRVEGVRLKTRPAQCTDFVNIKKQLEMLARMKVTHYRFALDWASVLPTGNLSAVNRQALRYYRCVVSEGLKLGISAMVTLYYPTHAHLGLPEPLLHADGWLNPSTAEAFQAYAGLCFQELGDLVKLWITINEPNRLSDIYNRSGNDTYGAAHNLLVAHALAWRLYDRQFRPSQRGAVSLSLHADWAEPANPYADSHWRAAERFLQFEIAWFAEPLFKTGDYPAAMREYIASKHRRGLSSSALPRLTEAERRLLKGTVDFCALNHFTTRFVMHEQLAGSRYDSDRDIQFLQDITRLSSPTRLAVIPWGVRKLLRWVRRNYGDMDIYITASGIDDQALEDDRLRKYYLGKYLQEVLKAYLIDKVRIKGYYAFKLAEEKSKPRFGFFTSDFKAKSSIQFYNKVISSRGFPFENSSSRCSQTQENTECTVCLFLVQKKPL


Columns and labels:
[1] = target: human FGFR1c/KLB cell surface receptor complex on iLite FGF21 reporter cells (human, UniProt P11362 22-822; Q86Z14 1-1044); test: cell-based or functional assay
Chain of human FGFR1c/KLB cell surface receptor complex on iLite FGF21 reporter cells (P11362 22-822, chain 1 of 2): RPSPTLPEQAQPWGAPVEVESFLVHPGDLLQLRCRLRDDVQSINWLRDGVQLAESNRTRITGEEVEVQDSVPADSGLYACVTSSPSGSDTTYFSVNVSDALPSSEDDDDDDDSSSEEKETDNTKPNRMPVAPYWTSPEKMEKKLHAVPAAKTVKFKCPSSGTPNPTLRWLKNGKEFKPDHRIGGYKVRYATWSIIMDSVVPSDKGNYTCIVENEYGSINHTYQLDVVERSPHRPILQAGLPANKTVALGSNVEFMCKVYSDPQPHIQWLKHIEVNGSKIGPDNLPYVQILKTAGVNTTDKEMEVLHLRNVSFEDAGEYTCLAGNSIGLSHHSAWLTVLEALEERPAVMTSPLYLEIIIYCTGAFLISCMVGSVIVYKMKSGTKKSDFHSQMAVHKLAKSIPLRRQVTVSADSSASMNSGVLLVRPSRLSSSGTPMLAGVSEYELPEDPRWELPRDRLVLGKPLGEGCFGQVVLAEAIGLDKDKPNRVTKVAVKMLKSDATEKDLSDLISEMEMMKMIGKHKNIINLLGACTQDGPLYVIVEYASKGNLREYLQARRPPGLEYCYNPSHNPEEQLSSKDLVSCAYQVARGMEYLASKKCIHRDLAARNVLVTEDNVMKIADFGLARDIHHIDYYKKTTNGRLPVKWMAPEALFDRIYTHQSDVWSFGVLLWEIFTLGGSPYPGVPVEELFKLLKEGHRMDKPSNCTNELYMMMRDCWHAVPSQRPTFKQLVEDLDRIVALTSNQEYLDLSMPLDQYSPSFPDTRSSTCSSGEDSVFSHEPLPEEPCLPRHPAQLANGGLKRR
Chain of human FGFR1c/KLB cell surface receptor complex on iLite FGF21 reporter cells (Q86Z14 whole entry, chain 2 of 2): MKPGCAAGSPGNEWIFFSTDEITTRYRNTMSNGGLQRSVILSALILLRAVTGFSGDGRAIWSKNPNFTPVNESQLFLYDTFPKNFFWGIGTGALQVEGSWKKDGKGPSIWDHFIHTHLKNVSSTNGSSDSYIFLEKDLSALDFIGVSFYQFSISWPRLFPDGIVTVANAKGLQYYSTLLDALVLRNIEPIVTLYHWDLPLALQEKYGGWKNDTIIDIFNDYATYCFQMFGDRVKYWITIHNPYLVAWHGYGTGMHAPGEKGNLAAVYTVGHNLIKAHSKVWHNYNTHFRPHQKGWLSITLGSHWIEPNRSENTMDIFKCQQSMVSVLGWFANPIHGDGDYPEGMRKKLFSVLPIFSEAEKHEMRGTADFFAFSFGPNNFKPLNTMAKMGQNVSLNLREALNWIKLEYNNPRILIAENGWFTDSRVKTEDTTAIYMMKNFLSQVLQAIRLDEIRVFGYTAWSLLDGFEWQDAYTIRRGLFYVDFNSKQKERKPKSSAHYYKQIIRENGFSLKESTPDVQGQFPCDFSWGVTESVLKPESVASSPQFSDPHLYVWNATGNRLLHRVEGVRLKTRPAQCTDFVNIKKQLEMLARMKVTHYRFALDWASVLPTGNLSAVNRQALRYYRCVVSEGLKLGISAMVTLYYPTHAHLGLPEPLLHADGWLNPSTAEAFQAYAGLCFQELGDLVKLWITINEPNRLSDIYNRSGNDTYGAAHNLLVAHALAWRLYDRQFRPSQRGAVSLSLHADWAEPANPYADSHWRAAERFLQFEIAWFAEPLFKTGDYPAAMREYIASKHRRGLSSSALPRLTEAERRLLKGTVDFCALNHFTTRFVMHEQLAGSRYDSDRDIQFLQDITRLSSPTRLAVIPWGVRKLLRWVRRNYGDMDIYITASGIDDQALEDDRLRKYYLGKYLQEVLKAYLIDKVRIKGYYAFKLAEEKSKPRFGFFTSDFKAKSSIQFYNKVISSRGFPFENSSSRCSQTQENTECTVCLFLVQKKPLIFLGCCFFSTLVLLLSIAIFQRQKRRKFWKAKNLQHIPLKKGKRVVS

[2] = target: T1, human beta-Klotho (KLB); test: BLI off-rate screen (Octet), Ab captured via Fc;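 further: antibody supernatants applied at 25 µg/mL, dissociation monitored over 1800 s in D-PBS with 0.1% BSA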
[3] = target: cell surface receptor composed of FGFR1c and co-receptor beta-Klotho (KLB) (human, UniProt P11362 22-822; Q86Z14 1-1044); test: cell-based or functional assay
Chain of cell surface receptor composed of FGFR1c and co-receptor beta-Klotho (KLB) (P11362 22-822, chain 1 of 2): as the sequence (P11362 22-822, chain 1 of 2) above
Chain of cell surface receptor composed of FGFR1c and co-receptor beta-Klotho (KLB) (Q86Z14 whole entry, chain 2 of 2): as the sequence (Q86Z14 whole entry, chain 2 of 2) above

[4] = target: T2, human beta-Klotho (KLB); test: BLI off-rate screening (Octet), crude supernatant;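 further: supernatants tested at 25 µg/mL, dissociation from biosensors recorded in D-PBS with 0.1% BSA over 1800 s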
Wherever Mean E max (%) is given: reference of the scale not given here.
Wherever Mean E max, Luciferase reporter gene assay is given: reference of the scale not given here.

Row | Binder | Mean E max (%) [1] [%] | Mean EC50 [1] [nM] | koff [2] [s⁻¹] | Mean E max, Luciferase reporter gene assay [3] [%] | Mean EC50, Luciferase reporter gene assay [3] [nM] | koff [4] [s⁻¹]
1 | 16H7 variant, light chain R53S (antibody, human IgG4 S228P, lambda, V domains shown, IgG4 backbone) VH: not shown VL: SYVLTQPPSVSVAPGQTARITCGGNNIGSESVHWYQQKPGQAPVLVVYDDSDSPSGIPERFSGSNSGNTATLTISRVEAGDEADYYCQVWDGNSDHVVFGGGTKLTVLG | 105 | 0.113 | 0.00029 | – | – | –
2 | 16H7 light chain variant V32R (antibody, IgG4, V domains shown, IgG4 backbone) VH: not shown VL: SYVLTQPPSVSVAPGQTARITCGGNNIGSESRHWYQQKPGQAPVLVVYDDSDRPSGIPERFSGSNSGNTATLTISRVEAGDEADYYCQVWDGNSDHVVFGGGTKLTVLG | – | – | – | 112 | 0.135 | 2.3e-06
3 | 16H7 light chain variant D50A (antibody, IgG4, V domains shown, IgG4 backbone) VH: not shown VL: SYVLTQPPSVSVAPGQTARITCGGNNIGSESVHWYQQKPGQAPVLVVYDASDRPSGIPERFSGSNSGNTATLTISRVEAGDEADYYCQVWDGNSDHVVFGGGTKLTVLG | – | – | – | 105 | 0.211 | 7.6e-05
4 | 16H7 variant, light chain S55T (antibody, human IgG4 S228P, lambda, V domains shown, IgG4 backbone) VH: not shown VL: SYVLTQPPSVSVAPGQTARITCGGNNIGSESVHWYQQKPGQAPVLVVYDDSDRPTGIPERFSGSNSGNTATLTISRVEAGDEADYYCQVWDGNSDHVVFGGGTKLTVLG | 100 | 0.109 | 1.3e-05 | – | – | –
5 | 16H7 variant, light chain S55I (antibody, human IgG4 S228P, lambda, V domains shown, IgG4 backbone) VH: not shown VL: SYVLTQPPSVSVAPGQTARITCGGNNIGSESVHWYQQKPGQAPVLVVYDDSDRPIGIPERFSGSNSGNTATLTISRVEAGDEADYYCQVWDGNSDHVVFGGGTKLTVLG | 110 | 0.133 | 1.3e-05 | – | – | –
6 | 16H7 variant, light chain S55C (antibody, human IgG4 S228P, lambda, V domains shown, IgG4 backbone) VH: not shown VL: SYVLTQPPSVSVAPGQTARITCGGNNIGSESVHWYQQKPGQAPVLVVYDDSDRPCGIPERFSGSNSGNTATLTISRVEAGDEADYYCQVWDGNSDHVVFGGGTKLTVLG | 91 | 0.244 | 6.3e-05 | – | – | –
7 | 16H7 light chain variant D49G (antibody, IgG4, V domains shown, IgG4 backbone) VH: not shown VL: SYVLTQPPSVSVAPGQTARITCGGNNIGSESVHWYQQKPGQAPVLVVYGDSDRPSGIPERFSGSNSGNTATLTISRVEAGDEADYYCQVWDGNSDHVVFGGGTKLTVLG | – | – | – | 102 | 0.102 | 0.00029
8 | 16H7 variant, light chain S55G (antibody, human IgG4 S228P, lambda, V domains shown, IgG4 backbone) VH: not shown VL: SYVLTQPPSVSVAPGQTARITCGGNNIGSESVHWYQQKPGQAPVLVVYDDSDRPGGIPERFSGSNSGNTATLTISRVEAGDEADYYCQVWDGNSDHVVFGGGTKLTVLG | 104 | 0.128 | 3.5e-05 | – | – | –
9 | 16H7 variant, light chain S55N (antibody, human IgG4 S228P, lambda, V domains shown, IgG4 backbone) VH: not shown VL: SYVLTQPPSVSVAPGQTARITCGGNNIGSESVHWYQQKPGQAPVLVVYDDSDRPNGIPERFSGSNSGNTATLTISRVEAGDEADYYCQVWDGNSDHVVFGGGTKLTVLG | 111 | 0.141 | 1.7e-05 | – | – | –
10 | 16H7 variant, light chain S55R (antibody, IgG4, V domains shown, IgG4 backbone; copies: 2 + 2) VH: not shown VL: SYVLTQPPSVSVAPGQTARITCGGNNIGSESVHWYQQKPGQAPVLVVYDDSDRPRGIPERFSGSNSGNTATLTISRVEAGDEADYYCQVWDGNSDHVVFGGGTKLTVLG | 100 | 0.143 | 4.9e-05 | – | – | –
11 | 16H7 variant, light chain S55F (antibody, IgG4, V domains shown, IgG4 backbone; copies: 2 + 2) VH: not shown VL: SYVLTQPPSVSVAPGQTARITCGGNNIGSESVHWYQQKPGQAPVLVVYDDSDRPFGIPERFSGSNSGNTATLTISRVEAGDEADYYCQVWDGNSDHVVFGGGTKLTVLG | 97 | 0.095 | 2.4e-05 | – | – | –
12 | 16H7 variant, light chain S55H (antibody, human IgG4 S228P, lambda, V domains shown, IgG4 backbone) VH: not shown VL: SYVLTQPPSVSVAPGQTARITCGGNNIGSESVHWYQQKPGQAPVLVVYDDSDRPHGIPERFSGSNSGNTATLTISRVEAGDEADYYCQVWDGNSDHVVFGGGTKLTVLG | 111 | 0.122 | 4e-06 | – | – | –
13 | 16H7 variant, light chain S55D (antibody, human IgG4 S228P, lambda, V domains shown, IgG4 backbone) VH: not shown VL: SYVLTQPPSVSVAPGQTARITCGGNNIGSESVHWYQQKPGQAPVLVVYDDSDRPDGIPERFSGSNSGNTATLTISRVEAGDEADYYCQVWDGNSDHVVFGGGTKLTVLG | 109 | 0.146 | 3.6e-05 | – | – | –
14 | 16H7 light chain variant D49W (antibody, IgG4, V domains shown, IgG4 backbone) VH: not shown VL: SYVLTQPPSVSVAPGQTARITCGGNNIGSESVHWYQQKPGQAPVLVVYWDSDRPSGIPERFSGSNSGNTATLTISRVEAGDEADYYCQVWDGNSDHVVFGGGTKLTVLG | – | – | – | 101 | 0.126 | 0.00032
15 | 16H7 variant, light chain R53T (antibody, human IgG4 S228P, lambda, V domains shown, IgG4 backbone) VH: not shown VL: SYVLTQPPSVSVAPGQTARITCGGNNIGSESVHWYQQKPGQAPVLVVYDDSDTPSGIPERFSGSNSGNTATLTISRVEAGDEADYYCQVWDGNSDHVVFGGGTKLTVLG | 109 | 0.134 | 8.7e-05 | – | – | –
16 | 16H7 variant, light chain S55V (antibody, human IgG4 S228P, lambda, V domains shown, IgG4 backbone) VH: not shown VL: SYVLTQPPSVSVAPGQTARITCGGNNIGSESVHWYQQKPGQAPVLVVYDDSDRPVGIPERFSGSNSGNTATLTISRVEAGDEADYYCQVWDGNSDHVVFGGGTKLTVLG | 100 | 0.131 | 4.4e-05 | – | – | –
17 | 16H7 variant, light chain S55L (antibody, IgG4, V domains shown, IgG4 backbone; copies: 2 + 2) VH: not shown VL: SYVLTQPPSVSVAPGQTARITCGGNNIGSESVHWYQQKPGQAPVLVVYDDSDRPLGIPERFSGSNSGNTATLTISRVEAGDEADYYCQVWDGNSDHVVFGGGTKLTVLG | 97 | 0.126 | 8.4e-05 | – | – | –
18 | 16H7 variant, light chain S55P (antibody, human IgG4 S228P, lambda, V domains shown, IgG4 backbone) VH: not shown VL: SYVLTQPPSVSVAPGQTARITCGGNNIGSESVHWYQQKPGQAPVLVVYDDSDRPPGIPERFSGSNSGNTATLTISRVEAGDEADYYCQVWDGNSDHVVFGGGTKLTVLG | 99 | 0.109 | 3.2e-05 | – | – | –
19 | 16H7 variant, light chain S55Y (antibody, IgG4, V domains shown, IgG4 backbone; copies: 2 + 2) VH: not shown VL: SYVLTQPPSVSVAPGQTARITCGGNNIGSESVHWYQQKPGQAPVLVVYDDSDRPYGIPERFSGSNSGNTATLTISRVEAGDEADYYCQVWDGNSDHVVFGGGTKLTVLG | 113 | 0.126 | 1.8e-05 | – | – | –
20 | 16H7 light chain variant D49S (antibody, IgG4, V domains shown, IgG4 backbone) VH: not shown VL: SYVLTQPPSVSVAPGQTARITCGGNNIGSESVHWYQQKPGQAPVLVVYSDSDRPSGIPERFSGSNSGNTATLTISRVEAGDEADYYCQVWDGNSDHVVFGGGTKLTVLG | – | – | – | 98 | 0.098 | 9.9e-05
21 | 16H7 variant, light chain S51G (antibody, human IgG4 S228P, lambda, V domains shown, IgG4 backbone) VH: not shown VL: SYVLTQPPSVSVAPGQTARITCGGNNIGSESVHWYQQKPGQAPVLVVYDDGDRPSGIPERFSGSNSGNTATLTISRVEAGDEADYYCQVWDGNSDHVVFGGGTKLTVLG | 104 | 0.129 | 0.0001 | – | – | –
22 | 16H7 variant, light chain S55E (antibody, IgG4, V domains shown, IgG4 backbone; copies: 2 + 2) VH: not shown VL: SYVLTQPPSVSVAPGQTARITCGGNNIGSESVHWYQQKPGQAPVLVVYDDSDRPEGIPERFSGSNSGNTATLTISRVEAGDEADYYCQVWDGNSDHVVFGGGTKLTVLG | 106 | 0.141 | 3.8e-05 | – | – | –
